Measured values from the RNAGym collection of RNA variant scans (doi:10.7554/elife.80360).

B1: CPEB3 Ribozyme (parent)
chain: GGGGGCCACAGCAGAAGCGUUCACGUCGCGGCCCCUGUCAGAUUCUGGUGAAUCUGCGAAUUCUGCUGU

Variants of: B1
Experiment: self-cleavage, relative activity (ratio to wild type); higher = more cleavage; co-transcriptional
Variant GGGGGCCACAGCAGAAACGUUCACGUCGCGGCCCCUGUCAGAUUCUGGUGAUUCUGCGAAUUCUGCUGU has a self-cleavage of 0.519. Variant GGGGGCCACAGCAGAAACGUUCACGUCGCGGCCCCUGUCAGAUUCUGGUGAGUCUGCGAAUUCUGCUGU has a self-cleavage of 0.596. With GGGGGCCACAGCAGAUGCGUACACGUCGCGGCCCCUGUCAGAUUCUGGUGAAUCUGCGAAUUCUGCUGU the self-cleavage was 0.839. For GGGGGCCACAGCAGAAACGUUCACGUCGCGGCCCCUGUCAGAUUCUGGUGAAUCUGCGAUUUCUGCUGU, the self-cleavage was 0.203. GGGGGCCACAGCAGAUGCGUUCACGUCGCGGCCCCUGUCAGAUUCCGGUGAAUCUGCGAAUUCUGCUGU showed a self-cleavage of 0.874. GGGGGCCACAGCAGAAACGUUCACGUCGCGGCCCCUGUCAGAUUCUGGUGAAUCUGCGGAUUCUGCUGU showed a self-cleavage of 0.691. Work on GGGGGCCACAGCAGAAACGUUCACGUCGCGGCCCCUGUCAGAUUCUGGUGGAUCUGCGAAUUCUGCUGU yielded a self-cleavage of 0.455. Work on GGGGGCCACAGCAGAAACGUUCACGUCGCGGCCCCUGUCAGAUUCUGGUGCAUCUGCGAAUUCUGCUGU yielded a self-cleavage of 0.452. With GGGGGCCACAGCAGAAACGUUGACGUCGCGGCCCCUGUCAGAUUCUGGUGAAUCUGCGAAUUCUGCUGU the self-cleavage was 0.127. GGGGGCCACAGCAGAAACGUUAACGUCGCGGCCCCUGUCAGAUUCUGGUGAAUCUGCGAAUUCUGCUGU showed a self-cleavage of 0.157. In the case of GGGGGCCACAGCAGAUGCGUUCACGUCGCGGCCCCUGUCAGAUUCUGGUGAAUCUGCGAAUUCGGCUGU, the self-cleavage is reported as 0.545. With GGGGGCCACAGCAGAUGCGUUCACGUCGCGGCCCCUGUCAGAUUCUGGUGAAUCUGCGAAUUCCGCUGU the self-cleavage was 0.463. GGGGGCCACAGCAGAUGCGUUCACGUCGCGGCCCCUGUCAGAUUCUGGUGAAUCUGCGAAUUCAGCUGU gave a self-cleavage of 0.588. With GGGGGCCACAGCAGAUGCGUUCACGUCGCGACCCCUGUCAGAUUCUGGUGAAUCUGCGAAUUCUGCUGU the self-cleavage was 0.482. Work on GGGGGCCACAGCAGAUGCGUUCACGUCGCGGCCCCUGUCAGAAUCUGGUGAAUCUGCGAAUUCUGCUGU yielded a self-cleavage of 0.615. For GGGGGCCACAGCAGAUGCGUUCACGUCGCGGCCCCUGUCAGAGUCUGGUGAAUCUGCGAAUUCUGCUGU, the self-cleavage was 0.395. For GGGGGCCACAGCAGAUGCGUUCACGUCGCGGCCCCUGUCAGAUUCUGAUGAAUCUGCGAAUUCUGCUGU, the self-cleavage was 0.862. Variant GGGGGCCACAGCAGAUGCGUUCACGUCGCGGCCCCUGUCAGAUUCUGCUGAAUCUGCGAAUUCUGCUGU has a self-cleavage of 0.889. GGGGGCCACAGCAGAUGCGUUCACGUCGCGGCCCCUGUCAGAUUCUGGUGAAUCUGCGAAAUCUGCUGU showed a self-cleavage of 0.93. In the case of GGGGGCCACAGCAGAUGCGUUCACGUCGCGGCCCCUGUCAGAUUCUGGUGAAUCUGCGAACUCUGCUGU, the self-cleavage is reported as 0.599. GGGGGCCACAGCAGAUGCGUUCACGUCGCGGCCCCUGUCAGAUUCUGGUGAAUCUGCGAAGUCUGCUGU gave a self-cleavage of 0.902. Variant GGGGGCCACAGCAGAAACGUUCACGUCGCGGCUCCUGUCAGAUUCUGGUGAAUCUGCGAAUUCUGCUGU has a self-cleavage of 0.43. In the case of GGGGGCCACAGCAGAUGCGUUCACGUCGCGGCCCCUGUCAGAUUCUGGUGAAUCUGCGAAUUCUGCUGA, the self-cleavage is reported as 0.923. Variant GGGGGCCACAGCAGAUGCGUUCACGUCGCGGCCCCUGUCAGAUUCUGGUGAAUCUGCGAAUUCUGCUGC has a self-cleavage of 1.02. With GGGGGCCACAGCAGAUGCGUUCACGUCGCGGCCCCUGUCAGAUUCUGGUGAAUCUGCCAAUUCUGCUGU the self-cleavage was 0.756. In the case of GGGGGCCACAGCAGAUGCGUUCACGUCGCGGCCCCUGUCAGAUUCUGGUGAAUCUGCAAAUUCUGCUGU, the self-cleavage is reported as 0.866. With GGGGGCCACAGCAGAUGCGUUCACGUCGCGGCCCCUGUCAGAUUCUGGUGAAUCGGCGAAUUCUGCUGU the self-cleavage was 0.335. With GGGGGCCACAGCAGAAACGUUCACGUCGCGGCCCCUGUCUGAUUCUGGUGAAUCUGCGAAUUCUGCUGU the self-cleavage was 0.2. For GGGGGCCACAGCAGAAACGUUCACGUCGCGGCCCCUGUCCGAUUCUGGUGAAUCUGCGAAUUCUGCUGU, the self-cleavage was 0.145. GGGGGCCACAGCAGAUGCGUUCACGUCGCGGCCCCUGUCAGAUUCUGGUGAAUCUGCGAAUCCUGCUGU showed a self-cleavage of 0.734. For GGGGGCCACAGCAGAUGCGUUCACGUCGCGGCCCCUGUCAGAUUCUGGUGAAUCUGCGAAUGCUGCUGU, the self-cleavage was 0.625. Variant GGGGGCCACAGCAGAUGCGUUCACGUCGCGGCCCCUGUCAGAUUCUGGUGAAGCUGCGAAUUCUGCUGU has a self-cleavage of 0.549. With GGGGGCCACAGCAGAUGCGUUCACGUCGCGGCCCCUGUCAGAUUCUGGUGAAACUGCGAAUUCUGCUGU the self-cleavage was 0.66. With GGGGGCCACAGCAGAAACGUUCAGGUCGCGGCCCCUGUCAGAUUCUGGUGAAUCUGCGAAUUCUGCUGU the self-cleavage was 0.116. In the case of GGGGGCCACAGCAGAAACGUUCAAGUCGCGGCCCCUGUCAGAUUCUGGUGAAUCUGCGAAUUCUGCUGU, the self-cleavage is reported as 0.221. Variant GGGGGCCACAGCAGAUGCGUUCACGCCGCGGCCCCUGUCAGAUUCUGGUGAAUCUGCGAAUUCUGCUGU has a self-cleavage of 0.812. Work on GGGGGCCACAGCAGAUGCGUUCACGACGCGGCCCCUGUCAGAUUCUGGUGAAUCUGCGAAUUCUGCUGU yielded a self-cleavage of 0.221. GGGGGCCACAGCAGAAACGUUCACGUCGCGGCCCCUGUCAGCUUCUGGUGAAUCUGCGAAUUCUGCUGU showed a self-cleavage of 0.253. Variant GGGGGCCACAGCAGAAACGUUCACGUCGCGGCCCCUGUCAGUUUCUGGUGAAUCUGCGAAUUCUGCUGU has a self-cleavage of 0.314.
